Our source for the binding result and Kd values is publication PMC8465852, “The HMGB Protein KlIxr1, a DNA Binding Regulator of Kluyveromyces lactis Gene Expression Involved in Oxidative Metabolism, Growth, and dNTP Synthesis”.

Broadly, the Kd is a measure of binding affinity in units of concentration.

Series [1] addresses T1, KlIxr1 (Kluyveromyces lactis, UniProt Q6CMQ4 1-464).
T1 sequence: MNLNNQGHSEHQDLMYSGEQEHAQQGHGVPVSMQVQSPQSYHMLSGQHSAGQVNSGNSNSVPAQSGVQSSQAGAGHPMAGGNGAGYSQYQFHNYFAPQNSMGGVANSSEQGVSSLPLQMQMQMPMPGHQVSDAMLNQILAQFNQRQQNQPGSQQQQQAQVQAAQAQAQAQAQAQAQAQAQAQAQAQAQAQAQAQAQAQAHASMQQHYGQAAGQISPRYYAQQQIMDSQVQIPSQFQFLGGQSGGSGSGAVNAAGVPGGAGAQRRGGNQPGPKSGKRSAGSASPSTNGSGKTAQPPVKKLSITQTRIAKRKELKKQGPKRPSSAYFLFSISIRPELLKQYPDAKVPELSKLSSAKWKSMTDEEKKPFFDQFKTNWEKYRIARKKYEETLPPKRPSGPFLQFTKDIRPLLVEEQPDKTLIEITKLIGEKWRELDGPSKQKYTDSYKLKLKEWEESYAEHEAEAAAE
Description: EMSA; calf thymus DNA carrier; two retarded bands; FA: 10 mM Tris-HCl pH 8.0, 100 mM KCl, 2 mM DTT, 1 mM EDTA, 500 ug/mL BSA, 25 C, 100 nM DNA; EMSA: 4 C 30 min, 500 nM DNA, 1 ug protein, 1 ug calf thymus DNA, buffer by reference. Conditions: protein: recombinant; tags: N-terminal 6xHis; label: 5'-FAM on forward strand (AJVV009f*); blunt. Background: In EMSA bound probe runs differently from free probe, usually more slowly.

In series [2] the target is T1, KlIxr1. Kind of series: fluorescence anisotropy; 100 nM DNA; FA: 10 mM Tris-HCl pH 8.0, 100 mM KCl, 2 mM DTT, 1 mM EDTA, 500 ug/mL BSA, 25 C, 100 nM DNA; EMSA: 4 C 30 min, 500 nM DNA, 1 ug protein, 1 ug calf thymus DNA, buffer by reference. Conditions: protein: recombinant, tags: N-terminal 6xHis, blunt. In general terms: Fluorescence polarisation rises when a labelled molecule tumbles more slowly, as on binding a larger partner.

B1: KlHEM13 promoter 40-mer (both sites) (dsDNA)
DNA 1: ATCTTGAATGTATGTTGGTTCAGCCTCTATTTCTCTCGTA
DNA 2: TACGAGAGAAATAGAGGCTGAACCAACATACATTCAAGAT
With B1, in the series with KlIxr1 [1], the binding result is listed as “binds”.

B2: HEM13B (dsDNA)
DNA 1: TGGCCCAGCCTCTATTTCTCTCGTACCGGT
DNA 2: ACCGGTACGAGAGAAATAGAGGCTGGGCCA
Take B2: the Kd with KlIxr1 [2] (label: 5'-FAM on forward strand (AJVV050f*)) was determined as 155 ± 38.6 nM.

B3: KlYCF1 promoter (dsDNA)
DNA 1: TTAATTGCAATTGTTACTGTTGATTTTAAA
DNA 2: TTTAAAATCAACAGTAACAATTGCAATTAA
As to B3, the Kd with KlIxr1 [2] (label: 5'-FAM on forward strand (AJVV029f*)) was found to be 105 ± 18.9 nM.

B4: HEM13A (dsDNA)
DNA 1: ATCTTGAATGTATGTTGGTTCAGCCTCTCC
DNA 2: GGAGAGGCTGAACCAACATACATTCAAGAT
For the molecule B4, the Kd with KlIxr1 [2] (label: 5'-FAM on forward strand (AJVV045f*)) came to 15.6 ± 4.27 nM.
